As usually defined, the Kd is the free concentration of one partner at which half of the binding sites on the other are occupied at equilibrium, for simple one-to-one binding. A low value points to tighter binding. One may read the koff as the rate constant with which the complex falls apart. A high value points to a short-lived complex. The kon is the rate constant with which the complex forms. A word on the IC50: it is the concentration that inhibits the measured activity by half.

The source of these data is patent US20190330336A1.

In assay [1] the target is human LAG3-Fc, R&D Systems #2319-L3 (human) (UniProt P18627). The assay can be described thus: SPR (Biacore), antibody captured on anti-Flag chip, human LAG3-Fc analyte, 25 C, 1:1 fit.
For assay [2], the target named is HIS-tagged (ACRO) or biotinylated recombinant human LAG3 protein (human) (UniProt P18627). Nature of the assay: FACS competition: antibody inhibits rhLAG3 binding to MHCII on DAUDI cells.
Chain of HIS-tagged (ACRO) or biotinylated recombinant human LAG3 protein (human) (P18627 23-450 limits assumed): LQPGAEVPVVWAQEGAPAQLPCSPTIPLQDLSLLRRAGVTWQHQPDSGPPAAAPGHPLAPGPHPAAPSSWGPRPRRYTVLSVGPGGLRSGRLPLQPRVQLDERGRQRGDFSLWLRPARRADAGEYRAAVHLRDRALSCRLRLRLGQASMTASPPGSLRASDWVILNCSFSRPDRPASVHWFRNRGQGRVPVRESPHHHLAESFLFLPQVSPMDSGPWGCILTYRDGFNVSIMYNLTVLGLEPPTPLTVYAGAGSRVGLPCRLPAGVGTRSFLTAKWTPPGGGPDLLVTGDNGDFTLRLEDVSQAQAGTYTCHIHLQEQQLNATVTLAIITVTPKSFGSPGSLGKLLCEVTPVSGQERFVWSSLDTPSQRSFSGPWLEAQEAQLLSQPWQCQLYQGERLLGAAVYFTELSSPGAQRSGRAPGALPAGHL

Chain of human LAG3-Fc, R&D Systems #2319-L3 (human) (P18627 23-450): as the sequence (P18627 23-450 limits assumed) above

B1: SRP1627-A02 (scFv, from a related filing, V domains shown, part only)
VH: QVQLVQSGAEVKKPGSSVKVSCKASGFNINDYFMHWVRQAPGQGLEWIARIDPWNGDTEYAPKFQGRVTITADESTSTAYMELSSLRSEDTAVYYCGMSDALDYWGQGTLVTVSS
VL: DVVMTQSPLSLPVTLGQPASISCKSSQSLLDSDGKTYLNWFQQRPGQSPRRLIYLVSKLDSGVPDRFSGSGSGTDFTLKISRVEAEDVGVYYCSHGNPVPQTFGQGTKVEIK
For B1, in assay [1], the Kd is 43.3 nM, the koff came out at 0.071 s⁻¹ and the kon was 1.64e+06 M⁻¹ s⁻¹. In addition, the IC50 in assay [2] was found to be 1.7 nM.
